From US20250340651A1 (CULLINAN MICA, published 2025) come the findings set out here.

The Kd is the concentration at which binding is half-saturated. Read a high Kd as a looser complex. The term koff denotes a measure of how fast the partners let go of each other. A lower koff goes with a long-lived complex. The term kon denotes a measure of how fast the partners come together. The low end stands for slow association, the high end for fast association. As usually defined, the EC50 (read off the curve) is the concentration at which the effect is half-maximal.

Assay [1] has as its target MICA antigen of Table 2 (purified 6×His-MICA*08 or 6×His-MICA*04 protein). Briefly: BLI (ForteBio Octet Red96); mAb captured on anti-mouse IgG Fc sensors, 6×His-MICA in solution, 1:1 model. On the procedure: Affinity kinetics was determined on a ForteBio Octet Red96 analyzer. […] Sensors were washed in assay buffer and then incubated with purified 6×His-MICA*08 or 6×His-MICA*04 proteins (100 nM), in 2-fold dilution series for 5 minutes in assay buffer to determine association kinetics of the antibody with the protein antigen. Sensors were then incubated in assay buffer for 10 minutes to determine dissociation kinetics. The resulting kinetics parameters were calculated with ForteBio analysis suite 8.0 using a 1:1 model.
For orientation: BLI is a label-free optical method that tracks binding on a fibre tip over time.

In assay [2] the target is T1, Recombinant MICA*04 protein.
T1 construct: Coated on ELISA plates
T1 sequence (Q29983 whole entry, species assumed, looked up): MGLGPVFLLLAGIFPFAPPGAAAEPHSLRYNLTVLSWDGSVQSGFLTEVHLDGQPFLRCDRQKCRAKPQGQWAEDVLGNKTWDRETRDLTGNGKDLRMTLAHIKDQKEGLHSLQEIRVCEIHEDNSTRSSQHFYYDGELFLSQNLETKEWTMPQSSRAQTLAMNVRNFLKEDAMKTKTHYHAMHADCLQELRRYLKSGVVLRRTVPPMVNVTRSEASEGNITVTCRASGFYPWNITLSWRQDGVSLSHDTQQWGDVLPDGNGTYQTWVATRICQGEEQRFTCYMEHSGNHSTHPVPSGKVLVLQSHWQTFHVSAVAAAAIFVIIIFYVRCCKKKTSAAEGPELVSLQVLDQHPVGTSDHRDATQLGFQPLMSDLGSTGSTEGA
Description: ELISA on coated recombinant antigen (1 µg/ml), goat anti-mouse IgG-HRP, OD 450 nm. Here is the method: (§1) Recombinant MICA*01, MICA*02, MICA*04, MICA*08, MICA*09, and MICB proteins were diluted to 1 μg/ml in 50 mM sodium carbonate buffer, pH 9.6, and coated onto high binding 96-well microplates (Corning #9018), 100 ng in 100 μl per well. The following morning, coated ELISA plates were washed three times with TBS-Tween-20, pH 7.4 and then blocked in SuperBlock T20 Blocking Buffer (Pierce #37536). After blocking, ELISA plates were washed once with TBS-T and incubated with serially diluted anti-MICA antibody ([…]) for approximately two hours at room temperature. Following the incubation, ELISA plates were washed three times with TBS-T and then incubated with Goat anti-Mouse IgG (H+L)-HRP conjugate (ThermoFisher Scientific #626520) for 45 minutes at room temperature with shaking (˜400 rpm). After the incubation, ELISA plates were washed three times with TBS-T and incubated with Super Sensitive Liquid Substrate TMB (Sigma #T4444), 100 μl per well, until color development was sufficient. The reaction was stopped with 1N sulfuric acid, 100 μl per well. Optical density (OD) values were measured at 450 nm using a microplate reader.

Assay [3] has as its target T2, Recombinant MICA*08 protein.
T2 construct: Coated on ELISA plates
T2 sequence (Q29983 whole entry, species assumed, looked up): T1 sequence (Q29983 whole entry, species assumed, looked up)
The description is as above. Here is the method: as §1

For assay [4], the target named is T3, Recombinant MICA*09 protein.
T3 construct: Coated on ELISA plates
T3 sequence (Q29983 whole entry, species assumed, looked up): T1 sequence (Q29983 whole entry, species assumed, looked up)
The assay is described as above. Here is the method:
as §1

Another assay addresses T4, Recombinant MICB protein (UniProt Q29980 23-298, limits assumed).
T4 construct: Coated on ELISA plates
T4 sequence (looked up): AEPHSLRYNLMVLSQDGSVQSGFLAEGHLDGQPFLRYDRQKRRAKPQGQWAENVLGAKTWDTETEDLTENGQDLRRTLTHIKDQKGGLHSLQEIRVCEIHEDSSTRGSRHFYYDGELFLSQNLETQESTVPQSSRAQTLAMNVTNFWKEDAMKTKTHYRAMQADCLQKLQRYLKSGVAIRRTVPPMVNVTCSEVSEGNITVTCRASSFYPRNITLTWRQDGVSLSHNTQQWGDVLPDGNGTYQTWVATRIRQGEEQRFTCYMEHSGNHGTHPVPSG
The description is as above. Here is the method: as §1

Assay [5] deals with T5, Recombinant MICA*01 protein (Homo sapiens (Human), UniProt Q29983 24-307).
T5 construct: Coated on ELISA plates
T5 sequence: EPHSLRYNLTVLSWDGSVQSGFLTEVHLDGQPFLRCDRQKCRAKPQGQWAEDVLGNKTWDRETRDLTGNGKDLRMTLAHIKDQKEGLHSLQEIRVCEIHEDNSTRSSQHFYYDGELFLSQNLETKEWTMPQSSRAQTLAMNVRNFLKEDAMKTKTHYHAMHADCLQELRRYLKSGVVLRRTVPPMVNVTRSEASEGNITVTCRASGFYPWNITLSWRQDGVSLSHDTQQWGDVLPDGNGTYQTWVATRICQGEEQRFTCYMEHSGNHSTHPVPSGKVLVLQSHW
The assay is described as above. Here is the method: as §1

For assay [6], the target named is T6, Recombinant MICA*02 protein.
T6 construct: Coated on ELISA plates
T6 sequence (Q29983 whole entry, species assumed, looked up): T1 sequence (Q29983 whole entry, species assumed, looked up)
Described as above. Here is the method:
as §1

A further assay deals with human FcRn (human, UniProt P55899 24-297; P61769 21-119, limits assumed). Briefly: Biacore (SPR), steady state analysis, pH 6.0; Relative Binding +++. (Surface plasmon resonance follows binding to a sensor surface in real time, without labels.)
human FcRn, sequence (P55899 24-297 limits assumed, chain 1 of 2): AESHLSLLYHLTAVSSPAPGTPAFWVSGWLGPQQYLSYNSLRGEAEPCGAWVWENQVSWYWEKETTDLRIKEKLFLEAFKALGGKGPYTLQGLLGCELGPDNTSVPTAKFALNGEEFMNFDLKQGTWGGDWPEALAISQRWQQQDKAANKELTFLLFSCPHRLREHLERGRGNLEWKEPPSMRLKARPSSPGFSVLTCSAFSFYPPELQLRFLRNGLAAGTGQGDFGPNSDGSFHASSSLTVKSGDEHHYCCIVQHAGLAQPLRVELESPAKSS
human FcRn, sequence (P61769 21-119 limits assumed, chain 2 of 2): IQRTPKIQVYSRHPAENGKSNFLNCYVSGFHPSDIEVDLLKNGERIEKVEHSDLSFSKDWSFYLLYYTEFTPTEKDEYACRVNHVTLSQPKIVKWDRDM
The next assay addresses T7, CD16A (176 Phe) (human, UniProt P08637).
T7 construct: also called FcγRIIIA 176Phe
Briefly: Biacore (SPR), receptor loaded on the chip, antibody as analyte, steady state analysis (FIG. 9).

The target of a further assay is T8, CD16A (176 Val) (human, UniProt P08637).
T8 construct: also called FcγRIIIA 176 Val
T8 sequence (P08637 17-208 F176V limits assumed): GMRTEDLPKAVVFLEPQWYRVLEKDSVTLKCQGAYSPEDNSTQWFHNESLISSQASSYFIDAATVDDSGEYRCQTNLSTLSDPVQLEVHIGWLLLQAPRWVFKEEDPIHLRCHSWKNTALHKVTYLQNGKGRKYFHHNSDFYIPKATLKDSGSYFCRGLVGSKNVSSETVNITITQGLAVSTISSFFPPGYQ
The description is as above.

For a further assay, the target named is T9, human FcγRI (human, UniProt P12314 16-288, limits assumed).
T9 construct: Biacore partner; also called FcγR1
T9 sequence (P12314 16-288 limits assumed): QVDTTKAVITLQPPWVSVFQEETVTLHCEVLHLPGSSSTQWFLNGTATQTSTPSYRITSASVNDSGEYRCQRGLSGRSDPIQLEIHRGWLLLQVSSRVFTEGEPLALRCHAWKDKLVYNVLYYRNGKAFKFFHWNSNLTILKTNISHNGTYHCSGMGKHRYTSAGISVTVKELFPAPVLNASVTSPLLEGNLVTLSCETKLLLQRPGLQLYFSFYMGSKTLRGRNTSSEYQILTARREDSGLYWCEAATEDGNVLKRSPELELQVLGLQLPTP
Briefly: Biacore (SPR), receptor loaded on the chip, antibody 0.411 to 33.33 nM as analyte, 1:1 affinity analysis (FIG. 9).

A further assay addresses T10, CD32A (167His).
T10 construct: also called FcγRIIA 167His; not shown: The vendor's tag
T10 chain: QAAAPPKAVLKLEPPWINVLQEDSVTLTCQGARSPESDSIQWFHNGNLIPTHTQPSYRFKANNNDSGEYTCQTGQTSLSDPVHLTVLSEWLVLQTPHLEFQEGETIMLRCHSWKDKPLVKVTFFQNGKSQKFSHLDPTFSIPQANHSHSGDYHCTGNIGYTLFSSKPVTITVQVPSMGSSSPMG
Briefly: Biacore (SPR), receptor loaded on the chip, antibody 296.3 to 24000 nM as analyte, steady state analysis (FIG. 9).

The target of the next assay is T11, CD32B (human, UniProt P31994).
T11 construct: also called FcγRIIB
T11 sequence (receptor, looked up): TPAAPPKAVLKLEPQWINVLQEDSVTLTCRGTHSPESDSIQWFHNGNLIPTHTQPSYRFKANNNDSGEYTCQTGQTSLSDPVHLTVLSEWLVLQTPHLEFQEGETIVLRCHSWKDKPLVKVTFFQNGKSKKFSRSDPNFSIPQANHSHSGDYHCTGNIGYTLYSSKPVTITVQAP
The assay is described as above.

T7 sequence (P08637 17-208 limits assumed): as the sequence (P08637 17-208 F176V limits assumed) above, with V160F counted along it

B1: 16F10.C12 (antibody, V domains shown)
VH: EVQLQESGPGLVAPSQSLSITCTVSGFSLTAFGVNWVRQPPGKGLEWLGMIWGDGNTDYNSTLRSRLSISKDNSKSQVFLKLNSLQTDDTARYFCARETYYGNYAGLGYWGQGTLVTVSA
VL: QIVLTQSPAIMSASIGERVTMTCTASSSVSSNYLHWYQQKPRSSPKLWIYTTSNLASGVPTRFSGSGSGTSYSLTISSMEAEDAATYYCHQFHRSPFTFGSGTKLEIK
notes: Mouse monoclonal: captured on anti-mouse IgG Fc sensors
For the molecule B1, in [1], binding was put at a Kd of 0.00645 µM, the dissociation rate constant (koff) came to 0.000548 s⁻¹ and the kon was 93300 M⁻¹ s⁻¹.

B2: 3F9.E4 (antibody, V domains shown)
VH: EVQLQESGEGLVKPGGSLKLSCAASGFTFSNYAMSWVRQTPEKRLEWVAYISPGGDYIYYADTVKGRFTISRDNARNTLYLQMSSLKSEDTAMYYCTTDRRHYGSYAMDYWGQGISVTVSS
VL: DIVMTQAAPSVPVTPGESVSISCRSSKSLLHSNGNTYLYWFLQRPGQSPQLLIYRMSNLASGVPDRFSGSGSGTAFTLRISRVEAEDVGVYYCMQHLEYPFTFGSGTKLEIK
notes: Mouse monoclonal: captured on anti-mouse IgG Fc sensors and detected with anti-mouse IgG; also called 3F9 antibody; anti-MICA/B mAb
As to B2, the “EC50 (read off the curve)” value (in assay [2]; in [3]; in assay [4]; with Recombinant MICB protein; in assay [5]; in [6]) was ~0.03 mg/L in each case. The same molecule gave a dissociation constant (Kd) in assay [1] of 0.00118 µM. The koff in [1] was 0.000421 s⁻¹. In addition, the kon in assay [1] came out at 383000 M⁻¹ s⁻¹.

B3: anti-MICA/B 3F9H1L3L wild type antibody (antibody, human IgG1, kappa)
heavy: not shown
light: DIVMTQSPLSLPVTPGEPASISCRSSKSLLHSNLNTYLYWFLQKPGQSPQILIYRMSNLASGVPDRFSGSGSGTAFTLKISRVEAEDVGVYYCMQHLEYPFTFGPGTKLEIKRTVAAPSVFIFPPSDEQLKSGTASVVCLLNNFYPREAKVQWKVDNALQSGNSQESVTEQDSKDSTYSLSSTLTLSKADYEKHKVYACEVTHQGLSSPVTKSFNRGEC
notes: also called CLN-619; CLN619; copies: 2 + 2
In the case of B3, in the assay with human FcRn, the Kd was 0.489 µM. For the same molecule, the binding result in the assay with CD16A (176 Phe), with CD16A (176 Val), with human FcγRI, in the assay with CD32A (167His) and in the assay with CD32B was “binds” in each case.

B4: anti-MICA/B 3F9H1L3L afucosylated antibody (antibody, human IgG1, kappa)
heavy: not shown
light: B3 light
modifications: afucosylated Fc N-glycan (Fc glycosylation site Asn 297, EU numbering), made with GlymaxX technology
notes: It differs only by lacking fucose on the Fc glycan; also called GLYMAXX; 3F9H1L3L GLYMAXX; copies: 2 + 2
On to B4, for which, in the assay with human FcRn, the Kd is 0.468 µM. For the same molecule, the binding result with CD16A (176 Phe), in the assay with CD16A (176 Val), in the assay with human FcγRI, with CD32A (167His) and in the assay with CD32B was “binds” each time.

B5: anti-MICA/B 3F9H1L3L antibody with the two heavy chain S239D and I332E mutations (antibody, human IgG1, kappa)
heavy: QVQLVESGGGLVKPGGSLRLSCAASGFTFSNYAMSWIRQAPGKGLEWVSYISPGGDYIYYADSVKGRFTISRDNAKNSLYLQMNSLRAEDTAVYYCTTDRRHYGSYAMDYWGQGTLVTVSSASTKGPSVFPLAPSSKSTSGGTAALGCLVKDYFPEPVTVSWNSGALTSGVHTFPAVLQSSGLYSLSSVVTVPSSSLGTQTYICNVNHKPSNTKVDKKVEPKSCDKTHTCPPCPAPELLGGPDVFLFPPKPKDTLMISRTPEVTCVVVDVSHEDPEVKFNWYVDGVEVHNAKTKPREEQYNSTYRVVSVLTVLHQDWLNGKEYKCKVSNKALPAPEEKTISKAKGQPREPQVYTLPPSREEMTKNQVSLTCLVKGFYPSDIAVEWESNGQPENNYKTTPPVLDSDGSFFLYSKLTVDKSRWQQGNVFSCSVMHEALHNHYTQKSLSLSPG
light: B3 light
notes: also called 3F9HIL3L S239D and I332E; CLN-619 DM; copies: 2 + 2
In turn, B5 gave a Kd in the assay with human FcRn of 0.504 µM. Also, the binding result with CD16A (176 Phe), with CD16A (176 Val), in the assay with human FcγRI, in the assay with CD32A (167His) and in the assay with CD32B was “binds” in each case.
